Source: paper PMC11189522, “Exploring the sequence-function space of microbial fucosidases” (Communications Chemistry, 2024)

Tests used:
[1] = test system: C[C@@H]1O[C@@H](Oc2ccc([N+](=O)[O-])cc2Cl)[C@@H](O)[C@H](O)[C@@H]1O; test: purified protein; settings: pH 6.0; 37.0 °C
BaGH29^26A = biological target: T1, BaGH29^26A (Bifidobacterium asteroides, UniProt A0A0F4KU40); test: X-ray crystallography; type: binding; settings: co-crystallised with 5 mM 2'FL; active site
T1 construct: gene JF69_08700

purified protein [2] = substrate: C[C@@H]1O[C@@H](Oc2ccc([N+](=O)[O-])cc2Cl)[C@@H](O)[C@H](O)[C@@H]1O; test: purified protein; type: biochemical, Bifidobacterium asteroides; settings: 50 mM citrate pH 6, 37 °C
purified protein [3] = substrate: C[C@@H]1O[C@@H](Oc2ccc([N+](=O)[O-])cc2Cl)[C@@H](O)[C@H](O)[C@@H]1O; test: purified protein; type: biochemical, Porphyromonas gingivalis; settings: 50 mM citrate pH 6, 37 °C
purified protein [4] = substrate: C[C@@H]1O[C@@H](Oc2ccc([N+](=O)[O-])cc2Cl)[C@@H](O)[C@H](O)[C@@H]1O; test: purified protein; settings: pH 6.0; 37.0 °C; remark: listed apart in the source
purified protein [5] = substrate: C[C@@H]1O[C@@H](Oc2ccc([N+](=O)[O-])cc2Cl)[C@@H](O)[C@H](O)[C@@H]1O; test: purified protein; type: biochemical, Tannerella forsythia; settings: 50 mM citrate pH 6, 37 °C
purified protein [6] = substrate: C[C@@H]1O[C@@H](Oc2ccc([N+](=O)[O-])cc2Cl)[C@@H](O)[C@H](O)[C@@H]1O; test: purified protein; type: biochemical, Streptococcus mitis; settings: 50 mM citrate pH 6, 37 °C
purified protein [7] = substrate: C[C@@H]1O[C@@H](Oc2ccc([N+](=O)[O-])cc2Cl)[C@@H](O)[C@H](O)[C@@H]1O; test: purified protein; type: biochemical, Sphaerochaeta globosa; settings: 50 mM citrate pH 6, 37 °C
purified protein [8] = substrate: C[C@@H]1O[C@@H](Oc2ccc([N+](=O)[O-])cc2Cl)[C@@H](O)[C@H](O)[C@@H]1O; test: purified protein; type: biochemical, Sphingopyxis terrae; settings: 50 mM citrate pH 6, 37 °C
purified protein [9] = substrate: C[C@@H]1O[C@@H](Oc2ccc([N+](=O)[O-])cc2Cl)[C@@H](O)[C@H](O)[C@@H]1O; test: purified protein; type: biochemical, Niastella yeongjuensis; settings: 50 mM citrate pH 6, 37 °C

Q: With RsGH29^3A (Rhodopirellula sp. SWK7) as the molecule, how does the Km [1] read?
A: Its Km is 668.00 ± 69.040 µM.

Q: “FbGH29^26A (Firmicutes bacterium CAG:345)” was tested. Which Km [1] did it give?
A: The Km was 188.10 ± 32.870 µM.

Q: For LaGH29^3A (Lysobacter antibioticus), which Km [1] is on record?
A: Its Km is 208.10 ± 33.240 µM.

Q: For BsGH29^44B (Bacteroides sp. SM23_62), which Km [1] is on record?
A: Its Km is 299.60 ± 25.340 µM.

Q: `C[C@@H]1O[C@@H](O)[C@@H](O)[C@H](O)[C@@H]1O` [Fuc] was tested. Which X-ray crystallography (BaGH29^26A) did it give?
A: Its X-ray crystallography is “resulting in a complex with Fuc bound in the active site”.

B1: BaGH29^26A (Bifidobacterium asteroides) (protein)
chain: MSDTVEWFKQAKYGMMIHWGLYSLLGGEYQGKSSSNYAEWVQSKLQIPNKEYERLTQAFNPIYFDADAIIDLAKRCGMQYLVVTTKHHDGFAMYRSLVDPYNVYDATPFHRDVIGELSLACRKAGLRFGLYYSQDLDWHEPDGGGYLSNDIETAGTTWDNSWDFTGEKNYDRAFKHKIMPQIEEIMSNYGEISVAWFDVPMTLSDEQSQTIYDTVKRLQPDCLINSRLGNGRYDYVSLGDNEIPEDSDASDKATSDGNVDYNSIEGFKPSKLGLYETAGTINDSWGFAYHDQNWKSPQTIHDYKAHLNKYGINYLLNVGLDGLGRVPMAAEQALLGARALEA
Q: B1 was tested. Which Km (purified protein [2]) did it give?
A: Its Km is 222.00 ± 20.100 µM.

Q: And the kcat (purified protein [2])?
A: Its kcat is 12.108 s⁻¹.

B2: PgGH29^1B (Porphyromonas gingivalis ATCC 33277) (protein)
chain: GQGQEVYYPGSVVFPADATLEQKVEMAAKVVPTLQQLAWQQMELTAFLHFGINTFTDSEWGDGKEDPALFNPVELDARQWVRILHEAGFRMVILTAKHHDGFCLWPTATTRHSVASSPWREGKGDVVKEVRAACEEYGMKFGIYLSPWDRNAECYGDSHRYNRFFVSQLTELLTHYGEVHEVWFDGANGEGPNGKRQEYDWETFYDTIRRLQPQAVMAIMGDDVRWVGNERGLGRTTEWSATVLTPGIYSRSKTERNRLGIRENSPDLGSREVLKEAGEIFWYPSEVDVSIRPGWFYHAAEDKKVKSLDKLVDIYFQSVGYNSVLLLNVPPDRRGLIHEADALRLKEWADYLGRAFAHDRVVDSARYAVVQEHAVEEYALESKTHINILMLQEDITKGQRTEAFTVEAWVDGAWQEIGRGTTIGYKRLLRIPAVETDRIRVRIEQCRLPVNLCRVAVYYAEPPEQVVADESWNDIPRADWKLLSDDPLTIDLGREVMLRAFTYAPYKAEAKPTTAVRYRLAVSEDGRQWREIPTMGEFANVINNPLPQTVDMNQIVRTRFIRLDATAASGDKAVITMQEIGVTVE
Q: B2 was tested. Which Km (purified protein [3]) did it give?
A: Its Km is 302.10 ± 9.6900 µM.

Q: And the kcat (purified protein [3])?
A: The kcat was 1.8767 s⁻¹.

B3: RiGH29^2A (Roseburia intestinalis) (protein)
chain: MSEQQKEQQLLETVDRIIAEGPYQPAWSSLMQTKTPDWFKQKRFGIFIHWGVYSVPANSNEWYPRNMYIEGMPAYEHHIKTYGSQKDFGYKDFIPMFHAEKFDPAEWVRLFKEAGAGYVFPVAEHHDGFQMYKSELSHWNSAEMGPKRDVLGELKAEIEKQGLTFCTSSHRAEHWFFLGHGKEFDSDIKEPLQKGDLYWPSMPEPDAEDLYGEPYPTEEFLNDWLARTAEIILNYKPSLLYFDWWVQHQAFKPYLKKLAAFYYNCGVKWGKDVKICYKHDAMMFGSGIVEVERGGFAEAKPYDWQTDTAVARNSWCYTDTLDYKSSNEIICTLVDVVSKNGNLLLNIGPKADGTIPDGDRAILEDLAKWMKVNSEAVIGANVWRKSMEGPTAAAEGQFQDQKELKFTNKDYRFTINHGNIYAIALQCPKDGVFCIRSLADSSDQNVPEFHGIIESVDILGYDGRLQWSVDGEGLHVTAPGIDSEFPVVVRVRPE
Q: Which Km (purified protein [4]) does the source give for B3 here?
A: Its Km is 302.30 ± 7.0500 µM.

B4: TfFuc1^8A (Tannerella forsythia 92A2) (protein)
chain: PAQPGYTPSADNLKARETFQDDKFGIFIHWGIYSMLADGEWVMHNKNLNWEEYAKLASGFYPAKFNAAEWVAAIKASGAKYITITSRHHDGFSMYATQQSDYNIVDATPFKRDVIHELADECRKQGIRLHLYYSHLDWRRDDYYPLGRTGKGTGRTTQGKWEDYCAFMNNQLTELLTNYGLIGAIWFDGMWDKDIYPDGMTAKTWNLNEQYTLIHRLQPACLIGNNHHITPFAGEDIQIFERDLPGENKAGLSGQDISRLPLETCETMNGMWGYKITDQDYKSTKILIQYLVKAAGKNANLLMNVGPQPNGELPTVAVQRLREMGEWMKIYAPTIQGTRGGVVTPRDWGVTTQKGKTLYVHVLNLDDKALFLPYAGNKLKSAVEYQSRKSVRFIQDRDGILLKFTDKPHSPDYVLELTFANELPLN
Q: How did the Km (purified protein [5]) turn out when B4 was run?
A: The Km was 153.70 ± 21.810 µM.

Q: And the kcat (purified protein [5])?
A: Its kcat is 8.9117 s⁻¹.

B5: SmGH29^1B (Streptococcus mitis B6) (protein)
chain: MVREIKPHGPLPSQAQLAYLEDELAAFIHFGPNTFYDQEWGTGQEDSERFNPTRLDAREWVRVLKEMGFKKLILVVKHHDGFVLYPTAYTDYSVKASPWRNGEGDLLLEVSQAATEFDMDMGVYLSPWDAHSPLYHVDQEADYNAYYLAQLKEILSNPAYGNGGKFAEVWMDGARGEGAQKVNYEFEKWFETIRDLQGDCLIFSTEGTSIRWIGNERGYAGDPLWQKVNPDKLGTEAALDYLQHGDSSGTIFSIGEADVSIRPGWFYHEEQDPKSLEELVEIYFHSVGRGTPLLLNIPPNQDGLFDEKDIKRLYEFATYRNELYKEDLALGAKVYGPALSADFACHHLTDGLESSSWASDADLPIQLELDLGFPKTFDVIELREDLKLGQRIAAFHVQVEVDGVWQEFGTGFTVGHKRLLRGPLVEAQKVRVMITESQDLPVLTKISLYKTPSLSQKEVVQGLAFAEKSLSVAKGETLHFRIERSESNTPLEAKISIQPGTGVHGIAYQDEIQVLQFQAGESKKDLCLPTLHFAADKTLDFYLNLTVDGQLVDQLQVQVS
Q: B5 was tested. Which Km (purified protein [6]) did it give?
A: Its Km is 289.50 ± 14.610 µM.

Q: And the kcat (purified protein [6])?
A: The kcat was 0.865 s⁻¹.

B6: SgGH29^9A (Sphaerochaeta globosa str. Buddy) (protein)
chain: MKHEAVQQWLDLQFGLFIHFGLYSLPGGVWKGERITRGYSEQILSHGYLPQADYEALTEQFSLPEFNPKHIVTTAKQAGMRYLVITTKHHDGFCLFDTNTTDYKSTNAACKRDIVKDLSDECKKQGLAFGIYFSWIDWHFSEAAAISSHNSDPIPSSHQRLNIAQLTELLSNYGPMCELWMDMGAPTAEQSQEVYDLVQSLQPQCMVNGRIWNDKQDFLTMGDNQLPAVPLNCPWQTPASIYKETWGYRSWQVRGDRDEKIQELSDTARKVVQEGGNYLLNIGLMGTGAIQSFEQEVLEGIGTVLAKNPLKREQNKRILPKIVPGQLCAEPLVAYRYTGTEYYSYRPIPTTLCWALQLNEDTSICIGWESDQGLAREQKLCLEIAGKQYYSSLQKGRTSDTFITALKLKKGKHEICLHTIGDELKRPELVDTTLRLVLRKEGK
Q: For B6, which Km (purified protein [7]) is on record?
A: The Km was 495.20 ± 171.80 µM.

Q: And the kcat (purified protein [7])?
A: The kcat was 2.4117 s⁻¹.

B7: StGH29^nc (Sphingopyxis terrae subsp. ummariensis) (protein)
chain: AATVTGAGLGPQPRFPITGLPVLNPILRLYPEKSVFRSGDIRFGVGELEMMIPFLGTGEIVWSVNVSEAKRYRIALCYSTVNETQPVTISVNGQDVPFAAPRTKGYFIPHPEGPVDDPGDPDTDGFWRMREYYLFERKPVAGEVDLVRGVNVVKLKVTAPKGKEAFRLRSIELTPVDKVAEIEADLTRQRANRANTDWFANAGYGMWFHFLDLTTPRVGPRKSYEDAVNALDVPKLAKMVDDCGARYLIWTVNHGNPTCPAPIKAWERLHPGMTTKRDLIMELADELAKYNIELMLYQNCPGTGGLIQQHQRAIDTPTFSEVEYANQLIDVFNEFGARYGTKVKGWWLDSWFQTMESYPNLPNEAINRAIKSGNRNCMSSFNGWAFPNEVECQDYWCGEITDLPAKPFGARYLKDGPAAGLQAHSAIKLDAPWFHVTENMEMEPPLYSARELADYIAICQRDQAPVTLGVGIYQDGTIGPKSYAVLTELRGLIRKGKARR
Q: How did the Km (purified protein [8]) turn out when B7 was run?
A: Its Km is 290.60 ± 19.810 µM.

Q: And the kcat (purified protein [8])?
A: Its kcat is 0.00733 s⁻¹.

B8: NyGH29^4A (Niastella yeongjuensis) (protein)
chain: QTYSPNWESLDARPAPQWFKDAKFGIFIHWGVYSVPAWAPVGKDYAVYSKYSEWYWNRLVTDSSKVGKAFRAYHNSTYGPNFKYQDFAPLFKAELFNPEQWADVFKNAGAQYVVLTSKHHDGFALWPSAEAWNWNAADVGPHKDLAGELTNAVKEKGLHMGFYYSLYEWFNPLYKSDIDKYVSEHMMPQLKDLVNRYKPDIIWPDGEWEHPSETWKSTQFLAWLYNESPVKNTVVVNDRWGKETRSKHGGYYTTEYDIVHNEDASKKQFEHPWEECRGIGGSFGYNRNETLGDYETSDAVIHMLIQKVARGGNLLLDIGPAADGTIPVIMQQRLADMGAWLKTNGEAIFGTTATKQPSINGAWFTQKNMDLYVILTAKMDKPLTFDLATAPGKATLLGVNKKVTVSYRSGKCTINPLELYPNLPAGGYAWVIKLEGAAGK
Q: What does the source list for B8?
A: Km (purified protein [9]): 279.80 ± 10.820 µM; kcat (purified protein [9]): 0.00383 s⁻¹
